In paper PMC7708434 (Biochimica et biophysica acta. General subjects, 2020):
Where two headings read alike, the source gives them in different places.

B1: 4-hydroxy-tetrahydrodipicolinate reductase (DapB) from Mycobacterium tuberculosis HKBS1 (enzyme)
chain: MRVGVLGAKGKVGATMVRAVAAADDLTLSAELDAGDPLSLLTDGNTEVVIDFTHPDVVMGNLEFLIDNGIHAVVGTTGFTAERFQQVESWLVAKPNTSVLIAPNFAIGAVLSMHFAKQAARFFDSAEVIELHHPHKADAPSGTAARTAKLIAEARKGLPPNPDATSTSLPGARGADVDGIPVHAVRLAGLVAHQEVLFGTEGETLTIRHDSLDRTSFVPGVLLAVRRIAERPGLTVGLEPLLDLH
B2: 4-hydroxy-tetrahydrodipicolinate reductase (DapB) from Vibrio vulnificus strain CMCP6 (enzyme, UniProt Q8DEM0 1-269, looked up)
chain: MVRIAVAGAAGRMGRNLVKAAHHNPVAKVAAGSERPESSLVGVDLGELCGEGKFDVVVCDDLAKQIDQFDVIIDFTAPASTLNNLALCQQYGKSIVIGTTGFTEEQREQIDLVAQQVPVVMAPNYSVGVNLVFKLLEKAAKVMGDYCDIEIVEAHHRHKVDAPSGTAIGMGEAIAGAMGNKLSDVAVYAREGITGERTKDEIGFATIRAGDIVGEHTAMFADIGERVEITHKATDRMTFANGAVKAAVWLHEKPAGFYTMTDVLGLNDL

Key:
crystal structure [1] = target: the molecule itself; test: crystal structure
crystal structure [2] = target: the molecule itself; test: crystal structure; remark: listed apart in the source

Row | Protein | stoichiometry N (crystal structure [1]) | stoichiometry N (crystal structure [2])
1 | B1 | 4 | –
2 | B2 | – | 4
